{"source": "paper PMC7311640", "about": "“The Beta Subunit of Non-bifurcating NADH-Dependent [FeFe]-Hydrogenases Differs From Those of Multimeric Electron-Bifurcating [FeFe]-Hydrogenases” (Frontiers in Microbiology, 2020)", "molecular_target": "the molecule itself", "assay": "SEC; purified HydAB fraction on Superdex 200 10/300 GL calibrated with gel filtration standards"}
{"protein": "αβ heterodimer of Syntrophus aciditrophicus HydAB (His-HydA with HydB) (complex, HydA, [FeFe]-hydrogenase alpha subunit, Syntrophus aciditrophicus, locus tag SYN_01370; as the chain of m1; HydB, [FeFe]-hydrogenase beta subunit, Syntrophus aciditrophicus, locus tag SYN_01369; as the chain of m2; Unit of the α2β2 heterotetramer found by size exclusion chromatography; also called HydAB fraction; 144 kDa αβ heterodimer; source: E. coli BL21(DE3), co-expressed with maturation genes) chain 1: MEEHMSSINLTVNNIDVEVEAGATLYQAAQKAGVNIPTLCAWFDKDHTPGACRVCVVEVEGMPSLAASCAYPAQNGMKVFTNSDKVRQARKMIVELILASHPQECNFCVRNGNCELQKVAEMVGVKNIRYDSEEFDRDRELDTSSPAIVRDSSKCINCRRCVTVCESIQTVAALSPMNRGYESTVSPAFNLPLNETNCVNCGQCVMACPVGALYEKDQVDEVWKALQDPTRHVVVQEAPAIRAALGEEFGMPPGSLVTGKMIAALRRLGFDKVFDTNFTADLTIIEEGNELLKRVKEGGTLPMITSCSPGWIKFCEHFYPDLLGHLSTCKSPQQMFGALAKTYYAQVSGIDPANIFSVSIMPCTAKKYEAQRPEMKSSGYQDVDVVLTTRELARMIKEAGIDFVNLPDEKYDDPMGEYTGAATIFGATGGVMEAALRTVYAVVTGEELSDLNIMPVRGLEGVKAAAVPVGALGDVKVAVAHGLGNARKLLDEIRAGKSEYAFIEVMCCPGGCVAGGGEPIPTTDEIRMLRAGALYRDDGEVQQYRQSHQSPPVKAVYEKFLKEPLGHKSHELLHTHYVQRGQSLPHLDASPAGEKETVEAMCEKD chain 2: MITVQDIENVIAARGNAREHLMAILRDLENLSGRNVLDVSVLNTLAMKMDLPQSAISGFTSFYTMFSTEPRAKFIIRVCKSGPCHVMGARTIFDVIENHLGIRAGETTADGLFHLEECECLGLCSAAPAMMVNYDMHGNLSESNIKEILDSYSAREPAFKAEYGPGIEGRAVIINNSQQTRRLLENVGKVDPASIESYLQNGGYEAARKAFAEYSPEQVIGIVKDSGLRGRGGAGFPVGVKWSFVPKGEMQKYVICNADEGEPGTFKDRVLMEENPQQLIEGMLLCGYAIGATLGYIYVRGEYRRSIERLQSAIDQARAKGFLGKKIFGSNFDFDIFVKEGGGAYVCGEETSLINSMEGKRGYPRVRPPFPAAAGFMGMPSNVNNVETLSSIPMIVARGADWFKSVGTATCAGTKLYCLSGKVNQTGLVELPMGATLRQMIDTFGGGMKSGSSFKFAQVGGAAGGILGADLMDLPLDIDSTIKAGVTLGSGVVLVCDQETCAVDFLLNVLNFFEHESCGQCIPCKLGTSQLHYVAQKFAMREAEEKDIQLMIDTAKMMKLASLCALGQSPILPIETMIRNFREEFVKHCDPDYECPQCDASLQAYYL", "values": [{"measurement": "stoichiometry N", "result": 2}]}
